Where “and” joins values, the source holds several entries; their conditions need not be identical. Equal entries are not always repeated. Where a SMILES comes first, the peptide text is derived from it. Bridges are numbered along the chain shown (N, C = ends). [ ]: non-standard residue; d: D form. The star is where a group is joined. DOTA = O=C(O)CN1CCN(CC(=O)O)CCN(CC(=O)*)CCN(CC(=O)O)CC1
Legend:
[1] = mice, blood collected 5 min pi, radio-HPLC
Description: At 5 min pi blood (~1mL) was collected from the heart of mice in a prechilled insulin syringe and swiftly placed in an ice-cold polypropylene tube containing EDTA on ice. Blood samples were centrifuged at 2000× g at 4 °C for 10 min. […] The mixture was centrifuged for 10 min at 15,000× g at 4 °C. […] An RP18 Symmetry Shield cartridge column (5 μm, 3.9 mm × 20 mm, Waters, Vienna, Austria) was eluted at a 1 mL/min flow rate with the following gradient: 100%A/0%B to 60%A/40%B in 40 min, whereby A = 0.1% aqueous TFA and B = MeCN (system 3).

[2] = in vivo; conditions: male, SCID, mouse, iv, total radioactivity
Description: (§1) For biodistribution experiments, male SCID mice of 7 weeks of age (15–20 g) on arrival day (NCSR ‘‘Demokritos’’ Animal House, Athens, Greece) were subcutaneously injected in their flanks with a suspension of AR4-2J cells (150 μL inocula of ~1 × 10^7 cells in PBS). The animals were kept under aseptic conditions for 12 days until well-palpable tumors were grown at the inoculation site. […] In an additional group, animals were co-injected with excess TATE (100 nmol) together with the radioligand (blocked animals) and were sacrificed at 4 h pi. Blood was immediately collected, and the organs of interest were excised and weighed. Sample radioactivity was measured in the γ-counter using proper standards of the injected activity. Data were calculated as %IA/g with the aid of standard solutions and represent mean values ± sd. For comparisons, a Two-way ANOVA with Tukey’s post hoc analysis was applied (PRISM^TM GraphPad—6 Software, San Diego, CA, USA). p values < 0.05 were considered statistically significant.

[3] = system: AR4-2J tumor-bearing SCID mice (rSST2R-positive); test: in vivo; conditions: AR4-2J mice, 4 h pi, block: co-injection of 100 nmol TATE; mean ± sd, n = 4
Description: as §1

[4] = in vivo; conditions: male, SCID, mouse, iv, total radioactivity; remark: listed apart in the source
Description: (§2) For the second biodistribution experiments, male SCID mice of 7 weeks of age (15–20 g) on arrival day (NCSR ‘‘Demokritos’’ Animal House, Athens, Greece) were subcutaneously injected in their flanks with a suspension of HEK293-hSST3R cells (150 μL inocula of ~3 × 10^7 cells in PBS). The animals were kept under aseptic conditions for 3–4 weeks until well-palpable tumors were grown at the inoculation site. […] Mice were sacrificed at 4 h pi, and biodistribution analyses were conducted, as described above.

[5] = system: HEK293-hSST3R tumor-bearing SCID mice; test: in vivo; conditions: HEK293-hSST3R mice, 4 h pi, block: co-injection of 80 nmol KE108; mean ± sd, n = 4
Description: as §2

[6] = AR4-2J tumor, 10 pmol total peptide
[7] = pancreas, 10 pmol total peptide

## C[C@H](NC(=O)CN1CCN(CC(=O)O)CCN(CC(=O)O)CCN(CC(=O)O)CC1)C(=O)NCC(=O)N[C@H]1CSSC[C@@H](C(=O)O)NC(=O)[C@H](CO)NC(=O)[C@@H]2CSSC[C@H](NC(=O)[C@H](CCCCN)NC1=O)C(=O)N[C@@H](Cc1ccccc1)C(=O)N[C@@H](Cc1ccccc1)C(=O)N[C@H](Cc1c[nH]c3ccccc13)C(=O)N[C@@H](CCCCN)C(=O)N[C@@H]([C@@H](C)O)C(=O)N[C@@H](Cc1ccccc1)C(=O)N2 [[^111In]In-AT6S, metal not drawn] ({DOTA}-AGCKCFF[dW]KTFCSC-OH; disulfide 3-14, 5-12)
[1]
  % intact radioligand in peripheral blood: > 98% and > 96%
[2]; [6]
  tissue uptake at 4 h: 1.9 ± 0.1 %ID/g
  tissue uptake at 24 h: 0.8 ± 0.1 %ID/g
[2]; blood, 10 pmol total peptide
  tissue uptake at 4 h: 0.3 ± 0.01 %ID/g
  tissue uptake at 24 h: 0.07 %ID/g
[2]; femur, 10 pmol total peptide
  tissue uptake at 24 h: 0.6 ± 0.1 %ID/g
[2]; heart, 10 pmol total peptide
  tissue uptake at 4 h: 0.5 ± 0.05 %ID/g
  tissue uptake at 24 h: 0.3 ± 0.06 %ID/g
[2]; heart, with TATE 100 nmol co-injected (in vivo SST2R blockade)
  tissue uptake at 4 h: 0.7 ± 0.1 %ID/g
[2]; intestines, 10 pmol total peptide
  tissue uptake at 24 h: 0.6 ± 0.08 %ID/g
[2]; kidneys, 10 pmol total peptide
  tissue uptake at 24 h: 34.1 ± 3.9 %ID/g
[2]; kidneys, with TATE 100 nmol co-injected (in vivo SST2R blockade)
  tissue uptake at 4 h: 49.5 ± 10.5 %ID/g
[2]; liver, 10 pmol total peptide
  tissue uptake at 4 h: 16.6 ± 1.5 %ID/g
  tissue uptake at 24 h: 12.1 ± 2.4 %ID/g
[2]; muscle, 10 pmol total peptide
  tissue uptake at 24 h: 0.1 ± 0.03 %ID/g
[2]; [7]
  tissue uptake at 4 h: 0.5 ± 0.1 %ID/g
  tissue uptake at 24 h: 0.4 ± 0.07 %ID/g
[2]; spleen, 10 pmol total peptide
  tissue uptake at 24 h: 6 ± 1.1 %ID/g
[2]; stomach, 10 pmol total peptide
  tissue uptake at 4 h: 0.8 ± 0.04 %ID/g
  tissue uptake at 24 h: 0.3 ± 0.03 %ID/g
[2]; stomach, with TATE 100 nmol co-injected (in vivo SST2R blockade)
  tissue uptake at 4 h: 0.5 ± 0.2 %ID/g
[3]
  Tumor uptake: 0.8 ± 0.05 %IA/g
[4]; HEK293-hSST3R tumor, 10 pmol total peptide
  tissue uptake at 4 h: 3.7 ± 0.4 %ID/g
[4]; blood, 10 pmol total peptide
  tissue uptake at 4 h: 0.3 ± 0.02 %ID/g
[4]; heart, 10 pmol total peptide
  tissue uptake at 4 h: 0.5 ± 0.05 %ID/g
[4]; heart, with KE108 80 nmol co-injected (in vivo SST3R blockade)
  tissue uptake at 4 h: 0.1 %ID/g
[4]; kidneys, with KE108 80 nmol co-injected (in vivo SST3R blockade)
  tissue uptake at 4 h: 26.8 ± 5.4 %ID/g
[4]; liver, 10 pmol total peptide
  tissue uptake at 4 h: 16.6 ± 1.5 %ID/g
[4]; [7]
  tissue uptake at 4 h: 0.5 ± 0.04 %ID/g
[4]; stomach, 10 pmol total peptide
  tissue uptake at 4 h: 0.8 ± 0.05 %ID/g
[4]; stomach, with KE108 80 nmol co-injected (in vivo SST3R blockade)
  tissue uptake at 4 h: 0.1 ± 0.04 %ID/g
[5]
  Tumor uptake: 0.3 ± 0.05 %IA/g
